{"source": "paper PMC6783512", "about": "“Dimethylaminomicheliolide (DMAMCL) Suppresses the Proliferation of Glioblastoma Cells via Targeting Pyruvate Kinase 2 (PKM2) and Rewiring Aerobic Glycolysis” (Frontiers in Oncology, 2019)", "target": "the molecule itself", "assay": "SEC + AUC; 2 mL of 3 mg/mL purified PKM2 on Superdex 200 pg 16/600, 1 mL/min, UV 280 nm; peaks identified by analytical ultracentrifuge (results: sucrose gradient ultracentrifugation); monomer and tetramer fractions isolated"}
{"protein": "recombinant PKM2 C424S (enzyme, Pyruvate kinase M2 (PKM2) with C424S; likely made in E. coli like the wild type; also called rPKM2 protein with C424 mutation; source: purified (plasmid pET28a-PKM2 C424S)) not shown", "values": [{"measurement": "stoichiometry N", "result": 4}]}
